Experimental data as given in the DeepSol protein solubility set.

test: soluble on expression in E. coli; label from the status in PepcDB or PDB records

Row | Sequence | soluble on expression in E. coli
1 | MPTLKVAYIPEHFSTPLFFAQQQGYYKAHDLSIEFVKVPEGSGRLINLLNSNEVDIAIGLTEAFIADIAKGNENIHVLDTYVKSPLLWAVSTGSNRDDVTDAKQLKRIGVSRIGSGSYVMSFVLAHQLGVPSFDQFQVLSNFKNLRDSVNLKDGVEGSDAFMWEYFTSKKYYDNHEIKQIDQIYTPWSSWVVATSSDSLQAKSDVIKNFIDAVNQGIQYYNEHVDEAIEYISSNLDYSAEDAKEWTKTVEFNSRIGKTPLDWDTIVVKTKDTLKLAGVLAESDDVILKRLNSNVKKTNL | soluble
2 | MPTVNVIGAGLAGSEAAWQIAQAGVDVNLYEMRPVKMTPAHHTSNFAELVCTNSLRANQITNAVGLLKEEMRQLHSIIIQSADATAVPAGGALAVDREPFSELVTQKLTSNSHIHVVNEELSAFPDGITVVATGPLTAPGLAQAIVDLNGEAGLSFFDAAAPILDANTINEDIVYKKSRYDRGEAAYLNCPMTKDEFLAFYQALVSAEVAEGHDFEKMTVFEGCMPIEVMAKRGIKTMLFGPLKPVGLEDPRTGKEPYAVVQLRQDNAAASLYNMVGFQTHLKWGEQKRVFRLIPGLENVQIVRYGVMHRNTFMKSPVVLEPTYASKRRPDLFFAGQMTGVEGYVESAASGLIAGINATRMALGETPVIFPETTAMGSMAHYITHTSAHHFQPMNANFGIMPALTVKIRNKKERNQQLADRALKDLATFQAGMNRVEQVLEHHHHHH | soluble
3 | MPVAISLPTSSTSHFFPRRRGHANHRYQRFSGAQSSTEDPYIRKNQTGVIIIGAGLAGLAAANQLTSKRIPFLLLEASDGVGGRVRTDIVDGFFLDRGFQIFITAYPEAKKLLDYEALDLQRFYAGAKVFYGGKFHTVADPLRHFWDSVASLANPIGSVVDKGLIALTRARVLIKSDEEILTAADEVPTIDLLRKIGFSETILDRFFRPFFGGIFFDRDLETTSKLFDFVFRCLALGENTLPAMGIGEISNQLAAKLPAKSVLLNTRVASIEYPNGSGSDPPSVRLQDGSVMKAELGVIIAVEQPEVNKLLDGIRDPVITKPARSTICLYFTAEPNQIPVQDPVLFLNGSNSGIINNMFFATNVARTYAPPGKALVSVSLIGLFEDRTDDDLAAEVLRELSGWFGESPVMSWKHLKTYRIQFAQPNQCPPTDLVKSPRVGSGLYLSGDYMTSATFDGALVSGRRAVEVLLRETGLIK | soluble
4 | MPVAIVTGASSGIGRAAALLLARNNYKLSLTGRNVAALNELAGQIVSAGSDKNDVLVTAVELASEEAPKTIVDATVQKFGRIDTLINSAGILRAGPVLDSGIEVYDELMNVNVRSLIRLTRAALPHIITTKGTVVNVSSINGPCPFPNVTYYCMSKSAVDQFTKCLALEMAPNGVRVNAVCPGVTVTNLHRTSGQDETTYSAFLERSKTTHALGRPGDANEVAEAIYFLASEKSSFTTGELLRVDGGRGIMHPR | soluble
5 | MPVDTKTVLVVRHGTAGRRSRYKGDDRKRPLDKRGRAQAEALVAQLMAFGATTLYAADRVRCHQTIEPLAQELDQLIHNEPLLTEEAYAADHKAARKRLLEIAGRPGNPVICTQGKVIPGLIEWWCERAKVRPETTGNRKGSTWVLSLSDGELVGADYLSPPDEKLEHHHHHH | not soluble
6 | MPVEITVKELLEAGVHFGHERKRWNPKFARYIYAERNGIHIIDLQKTMEELERTFRFIEDLAMRGGTILFVGTKKQAQDIVRMEAERAGMPYVNQRWLGGMLTNFKTISQRVHRLEELEALFASPEIEERPKKEQVRLKHELERLQKYLSGFRLLKRLPDAIFVVDPTKEAIAVREARKLFIPVIALADTDSDPDLVDYIIPGNDDAIRSIQLILSRAVDLIIQARGGVVEPSPSYALVQEAEATETPEGESEVEA | soluble
7 | MPVFKRYMRSPRLKAKHVMSTPPVTIEVGRSIAEAARLMAERGVGSLIVVDKQGLVKGILTERDIINSLASGKACAEGKVEDIMSRNPIVASPDDDLEIIIEKMRDMNIRHIPVIDEDGRPLGMISVRDIIDLGVSALKLFVE | soluble
8 | MPVFRRHASQNCASIPPMMLFKRPDTETLYFALVNKDPAYEGVAYVCVTSTKIFCRFTCTARKPKIENCRFRETITECLEAGFRPCKRCKPMLSYGTPDGTVTALLTALENEPARRWREEDVVALGHDPSTVRRSFKRRFGMSFLEIARLRRVGDAAESLASGEAVIGAQIDAGYESGSGFRSAINQLFGTSPAAMKGRGFLKGDWIDTPIGPMLAVADDHALHLLEFADRPALPAELKRLKARTGADMVLGRTAVTGQIAAELAAYFAGRSGSFETRLAGHGTPFERDVWRNLREIPAGEIVSYSSLATAMERPTAVRAVARANGANQLAIVVPCHRVLGADGSLTGYGGGLWRKKWLIEHERRMARGQMLGMPLASLEHHHHHH | not soluble
9 | MPVGRKEQIVDCRAVMGLGEGGGLAQRGTFAEGLRNDVVVVAMSPGRRHITKPVCEITYGIREAGIQTSVLVLDAGGGIPSDAPQGSLGSTFGLKPEEAKQVNRHKLCVIHFGNVKSHIIYKARLFLKYVDIPTIIVCQTPVDMEDFAAIGIKTKNVMPLESKTEGKIVEIITGVIRGESAPQKKIDEIIESIKKHLGLEHHHHHH | not soluble
10 | MPVLGQIWELSDSQKVGSLDKRGAFVAFKLVAAAQQGKPVANSSLYDSSLQPPRFAPPVPPANMQHHFQPSFPSVGRAPPVPPPPHPSHPYSISSQQSSPAHPSSAFPPQWPITPTDQAKYDSIFQSLNPVNGKLSGAHVRPVLMNSGLDAHALARIWELSDQDKDGNLDRIEMSVALHLVYRSLQSDPVPAQLPPNLIHPSKAMYAHSSPNFAAPPHPPRPMMGSRAGSVTSLDDVNMSQSYSATMPRAYPPQPGRAYSAQAHVNGSRTSGASTPISASHSIHSFPAGEWPINTGDYADQFAQTDTNKDGLVDGMDMRAPMMTTGLSAQILAHVWALADIKKCGQLNLEQFALTMHLLDMAKRGESIPSELPLHLIPPSFRPPTEPSALHHPAQSVSTPQLPEATSMEIKEALEGENEEMKQLAESIQSMLVERKTAEEAVLQLEADMTIKNSSIKNLQVELATLESTVKQLERQKGEATRRLADYDTQIEQLESACKAQKETKEDTEKRMQQIDEDAKNAEDCKANDEKEMEELKKEIEMLDNQFKTVRGEIVKETSQREQKVAELTTLERKEARDQIQMEKLDAAIENTTKLTEQVSDAVEKSEEEMVQILRSQQRLLSTVIDQSLLSDDTVYGETAGTSSQNHVQQPPDPFASARANPAADPFAQVDQFGSSGHFDAAFPTDPFAQGGFPSDSGFAQSAPAKPAPPRPAPPKSARETPVNDPFAPSQGQSTQPAGFADFADFGSAFN | not soluble
11 | MPVLSIIACGMLEDELVHVLSKDCELKQLIVVENGNNSGFLRKLRAGKCIPRTIPLDRVQMFFKTGFNPDFETLAKFLAPFPFLGKVCEKMNEKAGQQVSVVVNLLRLGLHADLELLKSEVFRNIREMAAFSDGILIFYGTCGHVLGELEKDFIDLGCPLFFLKDKAGEIVEDCISTALGGNEAYARAMLACRGKGTIYLTPMWASSWKNFEKGSGSKDLNNRYLKNSRYCLAVKIETGISYEPDFHQNVQEFARTFGMKTITLKGSSEITEQGYFDARKALVKNSDCLPKNHQDMEFLEHHHHHH | not soluble
12 | MPVTLSFGNRHNYEINHSRLARLMSPDKEEALYMGVWDRFKDCFRTHKKQEVLEVLYTLIHGCERENQAELNVDITGMEKIHAFTQLKEYANPSQQDRFVMRFDMNQTQVLFEIDGKVIDKCNLHRLLNVSENCIFKVMEEDEEELFLKICIKYGEKISRYPELLEGFANKLKDAVNEDDDVKDEVYKLMRSGEDRKMECVEWNGTLTEEEKNKLRCLQMGSFNITTQFFKIGYWELEGEVLFDMVHPTLSYLLQAYKPSLSSDLIETNTMLFSDVLNKDYDDYQNNKREIDAILRRIYRSHNNTLFISEKSSCRNMLI | not soluble
13 | MPVVIIVEHPRFISSAGPAVKGDTGQIMKYEKTKEFPHTKKFKAICYGAMMHPKRACKLTEQPTMTKQKRKNTFLTAYYRAKEICMIYSHIFINKLPKQKLTFKQFYVKK | not soluble
14 | MPVVTAVGRRRGFAMPWVSTARSGAVMLANYSAGVCGRVSSPGLNVRKMCLKANTPGAVTWLDTPKRFLSTQTASRCMAVNSSDVVTGRIDPQVLHTPLNTDVDGYAHAMHSSINSGPLEYLPATFSVFPALGDVGDLGGGVGAATYALDRLSNMRSGACVGGGESPWRSLMT | not soluble
15 | MPYPFKLPDLGYPYEALEPHIDAKTMEIHHQKHHGAYVTNLNAALEKYPYLHGVEVEVLLRHLAALPQDIQTAVRNNGGGHLNHSLFWRLLTPGGAKEPVGELKKAIDEQFGGFQALKEKLTQAAMGRFGSGWAWLVKDPFGKLHVLSTPNQDNPVMEGFTPIVGIDVWEHAYYLKYQNRRADYLQAIWNVLNWDVAEEFFKKA | soluble
16 | MPYRNCWSKIMKKLINDVQDVLDEQLAGLAKAHPSLTLHQDPVYVTRADAPVAGKVALLSGGGSGHEPMHCGYIGQGMLSGACPGEIFTSPTPDKIFECAMQVDGGEGVLLIIKNYTGDILNFETATELLHDSGVKVTTVVIDDDVAVKDSLYTAGRRGVANTVLIEKLVGAAAERGDSLDACAELGRKLNNQGHSIGIALGACTVPAAGKPSFTLADNEMEFGVGIHGEPGIDRRPFSSLDQTVDEMFDTLLVNGSYHRTLRFWDYQQGSWQEEQQTKQPLQSGDRVIALVNNLGATPLSELYGVYNRLTTRCQQAGLTIERNLIGAYCTSLDMTGFSITLLKVDDETLALWDAPVHTPALNWGK | soluble
17 | MQADPAIRRFAKKRNKRVDRMILDSNYMHTSIDRYFPNESKRRGRPDIIYLLLEMTQESILNHKNQLRTYVHTRNNQVIRISPITRMPKSYNRFIGLFEDLFEKRIITNNGKELLSMEESSLGDLINSIRRDRTILLHPKGEMRKPSEFISNANILIVIGGFSEGDFISDTSFINERYAIFDQELTIWSVANEMVANYERAVGLT | not soluble
18 | MQAGPALMRILPISTIKGKLNEFVDAVSSTQDQITITKNGAPAAVLVGADEWESLQETLYWLAQPGIRESIAEADADIASGRTYGEDEIRAEFGVPRRPHDYKDDDDK | soluble
19 | MQAIQNTQEIRRQADLTKAQWWLQQLCETDRMIVGRKRRDVQKLIHRLLSEPKGTSVPKSSPVNRLFPHPLSFELDPKWPAMDSFYNRISAAMRTIAPKKTASQQVVISCKQLKPAKLDMKTLRQVMEHELAELGDEKLQRMVCSFCYRAQPTHRLYTIEDVIKCQECWRGPFPSRTIFDALITDVAEKWAEKVAKRVECLYGNWDEKLTPMVRMLQNNVLLSEDIAALLRTCTDPHEFKEACEVIIITTIVFYLEYVDFRRSCEALMAIKPTVTYGQLFEIFQIYFPNRAKGIKTGDFL | not soluble
20 | MQDLSGFTVPKGFRGANALKVQLWWAVQATLFAGSPQILYRWRAFLLRLFGAKIGKNVVIRPSVKITYPWKLTVGDYAWVGDDAVLYTLGEINIGAHAVISQKGYLCTGSHDYTSAHFDINAAPIVIGEKCWLATDVFVAPGVTIGHGTVVGARSSVFKSLPANAICRGNPAVVTRQRVQKVTP | not soluble
21 | MQDSRPHPHDWNVSTDEAKRIQRRLASEVTERALPDGGETVAGIDVSVRDDTAQAAVSVLRLPELDVVDEATHRCEVPFPYVPGLLSFREMPAVLPALERLHSTPDVFVTDSHGAAHPRRFGLACHLGVLLDAPAIGVAKSILVGAPQGELGPEKGSRVPLVDDGETVGTVLRTRTDVNPVYVSVGHRCTLDGAADLMLDCSPRYKIPEPTRQAHKLSRAEGAAALEHHHHHH | soluble
22 | MQEEVNQKTVALSIRTTKLTGKVLAAALGKVVRALQKHHRKALTPQGRQSVKKLMNHYGGKSAMPYVGAPKDFDRIAKEFHVDYAFHKVSPGHYLLFFKANQADAITAAFQKYSAKVLNKEQDKASILGQLRKFTEQIRTQAKEKQRTREAVKDGR | not soluble
